± gives the uncertainty stated by the source.

The data set is described as follows: self-splicing fitness, log relative to wild type (ln ratio); higher = more splicing; Tetrahymena group I intron in knt gene, E. coli kanamycin selection, DiMSum; sequences stand for … in CUCUCU…GGAGGGAAAAGUUAUCAGGCAUGCACCUGGUAGCUAGUCUUUAAACCAAUAGAUUGCAUCGGUUUAAAAGGCAAGACCGUCAAAUUGCGGGAAAGGGGUCAACAGCCGUUCAGUACCAAGUCUCAGGGGAAACUUUGAGAUGGCCUUGCAAAGGGUAUGGUAAUAAGCUGACGGACAUGGUCCUAACCACGCAGCCAAGUCCUAAGUCAACAGAUCUUCUGUUGAUAUGGAUGCAGUUCACAGACUAAAUGUCGGUCGGGGAAGAUGUAUUCUUCUCAUAAGAUAUAGUCGGACCUCUCCUUAAUGGGAGCUAGCGGAUGAAGUGAUGCAACACUGGAGCCGCUGGGAACUAAUUUGUAUGCGAAAGUAUAUUGAUUAGUUUUGGAGUACUCGUGGUCG
In a few lines: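 Library with all eight P1ex-region intron nucleotides randomised, intron inside the knt kanamycin-resistance gene on pET-22b(+), in E. coli BL21(DE3). Cells grew overnight at 37°C or 30°C on LB agar with or without 25 μg/mL kanamycin (plus 100 μg/mL carbenicillin, 50 μM IPTG, 0.2% rhamnose), in six replicate transformations. Pooled colonies were amplicon-sequenced on Illumina HiSeq 2500. DiMSum fitness is the error-weighted combination of wild-type-normalised replicate fold changes, kanamycin versus none.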

With ACUGAGCAAUAUUACGUGAC, the “self-splicing fitness (ln)” value by setting is: (30 °C) -3.23 ± 0.2; (37 °C) -2.95 ± 0.27.

Turning to ACUGAGCAAUAUUACGUUAG, the “self-splicing fitness (ln)” value runs as follows: (30 °C) -3.64 ± 0.2; (37 °C) -0.75 ± 0.19. ACUGAGCAAUAUUACGUUGC: the “self-splicing fitness (ln)” value (37 °C) is -2.04 ± 0.28. On to ACUUAGCAAUAUUACGAACC, for which the “self-splicing fitness (ln)” value runs as follows: (30 °C) -0.695 ± 0.21; (37 °C) -0.285 ± 0.36. On the same counts, the results for ACUUAGCAAUAUUACGAACG are -1.16 ± 0.089 and -0.581 ± 0.1. On the same counts, the results for ACUUAGCAAUAUUACGAACU are -0.706 ± 0.12 and -0.193 ± 0.14. On the same counts, the results for ACUUAGCAAUAUUACGAAUU are -2.29 ± 0.1 and -0.888 ± 0.14.

With ACUUAGCAAUAUUACGAGCG, the “self-splicing fitness (ln)” value (30 °C) is -1.14 ± 0.096 and the “self-splicing fitness (ln)” value (37 °C) was found to be 0.122 ± 0.1. For ACUUAGCAAUAUUACGAUAC, in that order: -3.82 ± 0.42 and -2.28 ± 0.26. For ACUUAGCAAUAUUACGAUGC, in that order: -1.04 ± 0.091 and -0.644 ± 0.11. For ACUUAGCAAUAUUACGAUGU, in that order: -1.78 ± 0.08 and -1.36 ± 0.11. With ACUUAGCAAUAUUACGAUUC, the “self-splicing fitness (ln)” value was -2.3 ± 0.098 (30 °C) and -0.823 ± 0.1 (37 °C).

As for ACUUAGCAAUAUUACGCAAC, the “self-splicing fitness (ln)” value was -2.89 ± 0.19 (30 °C) and -1.72 ± 0.17 (37 °C). On the same counts, the results for ACUUAGCAAUAUUACGCGGG are -3.38 ± 0.27 and -2.75 ± 0.2. For ACUUAGCAAUAUUACGCUCC, in that order: -1.44 ± 0.22 and 0.041 ± 0.19. On the same counts, the results for ACUUAGCAAUAUUACGCUUG are -1.7 ± 0.094 and -0.865 ± 0.12.

Consider ACUUAGCAAUAUUACGGAUU, for which the “self-splicing fitness (ln)” value was -1.18 ± 0.12 (30 °C) and -0.862 ± 0.14 (37 °C).

ACUUAGCAAUAUUACGGCAG: the “self-splicing fitness (ln)” value is, setting by setting: (30 °C) -1.6 ± 0.092; (37 °C) -0.759 ± 0.12. Consider ACUUAGCAAUAUUACGGCGG, for which the “self-splicing fitness (ln)” value (30 °C) was -1.06 ± 0.087 and the “self-splicing fitness (ln)” value (37 °C) was -0.78 ± 0.096. On to ACUUAGCAAUAUUACGGGAA, for which the “self-splicing fitness (ln)” value runs as follows: (30 °C) -1.99 ± 0.2; (37 °C) -1.65 ± 0.16. On the same counts, the results for ACUUAGCAAUAUUACGGGCC are -2.42 ± 0.28 and -2.35 ± 0.42. With ACUUAGCAAUAUUACGGGCU, the “self-splicing fitness (ln)” value runs as follows: (30 °C) -1.74 ± 0.084; (37 °C) -0.866 ± 0.11.

Regarding ACUUAGCAAUAUUACGUCAC, the “self-splicing fitness (ln)” value is -3.8 ± 0.22 (30 °C) and -1.91 ± 0.2 (37 °C). For ACUUAGCAAUAUUACGUCCC, in that order: -0.637 ± 0.21 and -0.072 ± 0.25. Regarding ACUUAGCAAUAUUACGUGAC, the “self-splicing fitness (ln)” value was -2.05 ± 0.21 (30 °C) and -2.54 ± 0.29 (37 °C).

As for ACUUAGCAAUAUUACGUGCU, the “self-splicing fitness (ln)” value by setting is: (30 °C) -1.9 ± 0.094; (37 °C) -1.06 ± 0.1. On the same counts, the results for ACUUAGCAAUAUUACGUGUU are -3.22 ± 0.16 and -1.5 ± 0.12. ACUUAGCAAUAUUACGUUUG: the “self-splicing fitness (ln)” value is -3.01 ± 0.12 (30 °C) and -2.09 ± 0.16 (37 °C). On the same counts, the results for AGAAAGCAAUAUUACGACCC are 0.302 ± 0.21 and -0.444 ± 0.27.

In the case of AGAAAGCAAUAUUACGACCG, the “self-splicing fitness (ln)” value (30 °C) is -0.595 ± 0.15 and the “self-splicing fitness (ln)” value (37 °C) turned out to be 0.0491 ± 0.17. With AGAAAGCAAUAUUACGAUAU, the “self-splicing fitness (ln)” value (30 °C) was -1.07 ± 0.096 and the “self-splicing fitness (ln)” value (37 °C) was -0.792 ± 0.11. Consider AGAAAGCAAUAUUACGCAAA, for which the “self-splicing fitness (ln)” value is -3.28 ± 0.26 (30 °C) and -0.836 ± 0.13 (37 °C).

Regarding AGAAAGCAAUAUUACGCAUC, the “self-splicing fitness (ln)” value (30 °C) is -2.53 ± 0.34.

Consider AGAAAGCAAUAUUACGCCUU, for which the “self-splicing fitness (ln)” value (30 °C) was -1.29 ± 0.12 and the “self-splicing fitness (ln)” value (37 °C) was -1.69 ± 0.14. On the same counts, the results for AGAAAGCAAUAUUACGCUAA are -2.38 ± 0.34 and -1.11 ± 0.4. In the case of AGAAAGCAAUAUUACGCUUG, the “self-splicing fitness (ln)” value was -2.37 ± 0.15 (30 °C) and -1.73 ± 0.18 (37 °C). As to AGAAAGCAAUAUUACGGACC, the “self-splicing fitness (ln)” value is -0.299 ± 0.3 (30 °C) and 0.21 ± 0.3 (37 °C). On the same counts, the results for AGAAAGCAAUAUUACGGAUA are -2.15 ± 0.15 and -1.77 ± 0.15. On to AGAAAGCAAUAUUACGGAUC, for which the “self-splicing fitness (ln)” value was -1.53 ± 0.13 (30 °C) and -0.656 ± 0.17 (37 °C). On to AGAAAGCAAUAUUACGGAUG, for which the “self-splicing fitness (ln)” value reads like this: (30 °C) -2.93 ± 0.14; (37 °C) -2.04 ± 0.14.

As to AGAAAGCAAUAUUACGGCAC, the “self-splicing fitness (ln)” value by setting is: (30 °C) -0.435 ± 0.087; (37 °C) -0.727 ± 0.13. For AGAAAGCAAUAUUACGGCUU, in that order: -1.26 ± 0.072 and -0.7 ± 0.089.

Turning to AGAAAGCAAUAUUACGGUUC, the “self-splicing fitness (ln)” value reads like this: (30 °C) -2.72 ± 0.12; (37 °C) -1.83 ± 0.13.

Take AGAAAGCAAUAUUACGGUUG: the “self-splicing fitness (ln)” value is -3.65 ± 0.17 (30 °C) and -1.78 ± 0.16 (37 °C). For AGAAAGCAAUAUUACGGUUU, in that order: -0.927 ± 0.068 and -0.0576 ± 0.082. On the same counts, the results for AGAAAGCAAUAUUACGUAAC are -3.26 ± 0.22 and -2.47 ± 0.33. For AGAAAGCAAUAUUACGUGCA, in that order: -0.717 ± 0.079 and -0.292 ± 0.099. AGAAAGCAAUAUUACGUUAG: the “self-splicing fitness (ln)” value by setting is: (30 °C) -2.91 ± 0.19; (37 °C) -2.69 ± 0.18. On to AGACAGCAAUAUUACGAAAG, for which the “self-splicing fitness (ln)” value is -2.18 ± 0.17 (30 °C) and -2.48 ± 0.21 (37 °C). In the case of AGACAGCAAUAUUACGAACG, the “self-splicing fitness (ln)” value runs as follows: (30 °C) -1.29 ± 0.1; (37 °C) -0.106 ± 0.12. For AGACAGCAAUAUUACGAGAU, in that order: -2.88 ± 0.1 and -2.85 ± 0.18. On the same counts, the results for AGACAGCAAUAUUACGAGCG are -0.874 ± 0.071 and -0.405 ± 0.081. Regarding AGACAGCAAUAUUACGAGUU, the “self-splicing fitness (ln)” value (30 °C) is -2.26 ± 0.086 and the “self-splicing fitness (ln)” value (37 °C) was -1.14 ± 0.099. For AGACAGCAAUAUUACGAUAA, in that order: -2.68 ± 0.16 and -0.931 ± 0.15. For AGACAGCAAUAUUACGAUAU, in that order: -1.93 ± 0.064 and -0.802 ± 0.07.

As to AGACAGCAAUAUUACGAUCA, the “self-splicing fitness (ln)” value by setting is: (30 °C) -0.682 ± 0.074; (37 °C) 0.267 ± 0.089. On the same counts, the results for AGACAGCAAUAUUACGAUUU are 0.0877 ± 0.068 and 0.119 ± 0.086. AGACAGCAAUAUUACGCAAC: the “self-splicing fitness (ln)” value is -3.42 ± 0.22 (30 °C) and -1.2 ± 0.14 (37 °C). On the same counts, the results for AGACAGCAAUAUUACGCACC are -0.553 ± 0.13 and 0.279 ± 0.17. For AGACAGCAAUAUUACGCAUG, in that order: -2.45 ± 0.13 and -1.23 ± 0.11. On the same counts, the results for AGACAGCAAUAUUACGCUAA are -2.17 ± 0.11 and -0.0364 ± 0.1.

On to AGACAGCAAUAUUACGCUGA, for which the “self-splicing fitness (ln)” value is -2.39 ± 0.16 (30 °C) and -1.75 ± 0.19 (37 °C). On the same counts, the results for AGACAGCAAUAUUACGGAGU are -4.06 ± 0.16 and -2.28 ± 0.13.

As to AGACAGCAAUAUUACGGCAU, the “self-splicing fitness (ln)” value (30 °C) is -0.544 ± 0.052 and the “self-splicing fitness (ln)” value (37 °C) is -0.211 ± 0.066.

Take AGACAGCAAUAUUACGGCGG: the “self-splicing fitness (ln)” value reads like this: (30 °C) -2.25 ± 0.13; (37 °C) -0.609 ± 0.14.

For AGACAGCAAUAUUACGGGAU, the “self-splicing fitness (ln)” value (30 °C) is -1.22 ± 0.098 and the “self-splicing fitness (ln)” value (37 °C) was -1.71 ± 0.14. On the same counts, the results for AGACAGCAAUAUUACGGGGG are -3.63 ± 0.26 and -2.79 ± 0.23. On the same counts, the results for AGACAGCAAUAUUACGGUAA are -2.04 ± 0.11 and -1.37 ± 0.085. On the same counts, the results for AGACAGCAAUAUUACGGUAC are -3.29 ± 0.17 and -2.41 ± 0.17. Turning to AGACAGCAAUAUUACGGUUC, the “self-splicing fitness (ln)” value reads like this: (30 °C) -3.34 ± 0.18; (37 °C) -1.05 ± 0.13. On the same counts, the results for AGACAGCAAUAUUACGUAAU are -1.3 ± 0.05 and -0.92 ± 0.071.

As for AGACAGCAAUAUUACGUCUA, the “self-splicing fitness (ln)” value was -1.31 ± 0.097 (30 °C) and -0.608 ± 0.099 (37 °C).

Regarding AGACAGCAAUAUUACGUUCA, the “self-splicing fitness (ln)” value (30 °C) was -0.336 ± 0.056 and the “self-splicing fitness (ln)” value (37 °C) was -0.159 ± 0.086. For AGACAGCAAUAUUACGUUGA, in that order: -3.58 ± 0.16 and -1.77 ± 0.11. Consider AGACAGCAAUAUUACGUUUA, for which the “self-splicing fitness (ln)” value by setting is: (30 °C) -2.45 ± 0.094; (37 °C) -0.782 ± 0.083.

Values taken from the supplement of paper PMC7877785.
